The text below walks through data of article PMC2738423.

What all share (test): SPR
For assay [1], the target named is wild type (WT) mouse hinge-Fc region (mouse IgG1 derived), no MBP epitope attached (mouse).
The target of assay [2] is Fc-WT-MBP (glycosylated; wild type mouse IgG1 hinge-Fc linked via Gly-Ser-Gly-Gly to MBP1–9[4Y]) (mouse | not stated).
Assay [3] has as its target AglyFc-mut-MBP (aglycosylated, N297A; mouse IgG1 hinge-Fc TT-HN mutant linked via Gly-Ser-Gly-Gly to MBP1–9[4Y]) (mouse | not stated).
Assay [4] concerns the target AglyFc-WT-MBP (aglycosylated, N297A; mouse IgG1 hinge-Fc linked via Gly-Ser-Gly-Gly to MBP1–9[4Y]) (mouse | not stated).

For the substance “Recombinant mouse FcRn (from UniProt Q61559 22-365; P01887 21-119) (receptor)”, the KD of the higher affinity interaction site in assay [1] was determined as 188 nM; in assay [2] it was 212 nM; in assay [3] it was 19.8 nM; in assay [4], 170 nM.
